# Read-outs that look alike come from different tables or passages of the source.
# What was measured:
# GFRα1-RET = GFRα1-RET (Homo sapiens, UniProt P07949); assay: RET phosphorylation assay; assay type: cell-based; settings: GDNF 200 ng/ml, 15 min; vehicle 0.66±0.22
# RET = RET (Homo sapiens, UniProt P07949); assay: RET phosphorylation assay, GFP transfected MG87RET cells; assay type: cell-based; settings: GDNF in the absence of GFRα1
# AKT [1] = assay type: cell-based, murine; settings: GDNF 200 ng/ml; vehicle 0.91±0.20
# ERK [2] = assay type: cell-based, murine; settings: GDNF 200 ng/ml; vehicle 0.56±0.13
# [3] = test system: wild-type midbrain dopamine neurons (TH-ir cells); assay: Survival assay for primary dopamine neurons, wild-type; assay type: cell-based, mouse; settings: GDNF 10 ng/ml ([…]), 5 days in vitro; vehicle 226.3±6.6
# [4] = test system: RET knockout midbrain dopamine neurons (TH-ir cells); assay: Survival assay for primary dopamine neurons, RET knockout; assay type: cell-based, mouse; settings: GDNF 10 ng/ml (≃[…]), 5th day in vitro
# [5] = test system: midbrain dopamine neurons exposed to MPP+; assay: Survival of MPP+-challenged dopamine neurons; assay type: cell-based, mouse; settings: GDNF 10 ng/ml (≃[…]) with MPP+ 2 μM, 48 hours; vehicle 267.7±20.4
# 6-OHDA lesioned rats [6] = assay: Amphetamine-induced rotational assay, unilateral 6-OHDA lesion; assay type: in vivo, rat; settings: GDNF 3 μg/24 h intrastriatal 14 days; 12 weeks post lesion
# 6-OHDA lesioned rats [7] = assay: TH-ir neurite number in the striatum; assay type: in vivo, rat; settings: BT44 0.1 and 0.3 μg/24 h, GDNF 3 μg/24 h; newly developed algorithm
# 6-OHDA lesioned rats [8] = assay: TH-ir cell bodies in the SNpc, CNN algorithm; assay type: in vivo, rat; settings: GDNF 3 μg/24 h
# 6-OHDA lesioned rats [9] = assay: DAT-ir cell bodies in the SNpc; assay type: in vivo, rat; settings: GDNF 3 μg/24 h
# dopamine neurons = settings: cited from earlier work
# 6-OHDA lesioned rats [10] = assay: Optical density of TH-ir fibers in the dorsal striatum; settings: GDNF 3 μg/24 h; 12 weeks post lesion
# 6-OHDA lesioned rats [11] = assay: Optical density of DAT-ir fibers in the dorsal striatum; settings: GDNF 3 μg/24 h
# GFRα2-RET = GFRα2-RET (Homo sapiens, UniProt P07949); assay: RET phosphorylation assay, GFRα2 transfected MG87RET cells; assay type: cell-based; settings: NRTN 200 ng/ml, 15 min; vehicle 0.86±0.15
# Sequence of GFRα2-RET (P07949 29-1114): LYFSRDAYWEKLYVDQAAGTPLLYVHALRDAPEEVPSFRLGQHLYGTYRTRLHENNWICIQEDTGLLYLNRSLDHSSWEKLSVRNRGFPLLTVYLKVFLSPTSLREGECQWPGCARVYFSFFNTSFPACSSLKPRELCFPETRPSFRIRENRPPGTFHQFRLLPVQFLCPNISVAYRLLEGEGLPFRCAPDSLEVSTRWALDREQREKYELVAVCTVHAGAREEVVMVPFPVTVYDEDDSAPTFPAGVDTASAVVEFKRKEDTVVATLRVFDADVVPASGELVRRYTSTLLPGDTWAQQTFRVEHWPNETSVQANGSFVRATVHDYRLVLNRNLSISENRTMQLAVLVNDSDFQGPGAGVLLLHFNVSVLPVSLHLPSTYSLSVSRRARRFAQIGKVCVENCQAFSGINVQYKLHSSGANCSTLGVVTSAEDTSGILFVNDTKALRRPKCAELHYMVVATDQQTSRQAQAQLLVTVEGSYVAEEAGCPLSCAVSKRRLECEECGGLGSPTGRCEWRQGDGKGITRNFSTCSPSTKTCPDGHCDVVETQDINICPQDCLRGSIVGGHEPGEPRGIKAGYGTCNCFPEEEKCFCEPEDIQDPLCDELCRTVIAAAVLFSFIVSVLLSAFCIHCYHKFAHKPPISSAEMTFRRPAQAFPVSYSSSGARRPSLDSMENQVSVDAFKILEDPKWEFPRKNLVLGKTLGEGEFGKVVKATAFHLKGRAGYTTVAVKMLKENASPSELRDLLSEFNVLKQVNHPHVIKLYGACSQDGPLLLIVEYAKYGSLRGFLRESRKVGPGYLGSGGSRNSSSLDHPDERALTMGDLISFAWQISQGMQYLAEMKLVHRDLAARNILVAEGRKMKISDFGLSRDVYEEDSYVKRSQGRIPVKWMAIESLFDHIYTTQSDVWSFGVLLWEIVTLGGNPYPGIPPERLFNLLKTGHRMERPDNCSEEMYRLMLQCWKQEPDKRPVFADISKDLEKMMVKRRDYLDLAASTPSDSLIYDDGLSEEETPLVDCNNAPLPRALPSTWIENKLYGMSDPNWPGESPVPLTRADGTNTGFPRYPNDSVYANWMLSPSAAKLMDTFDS
# AKT [12] = assay type: cell-based, murine; settings: NRTN 200 ng/ml; vehicle 0.63±0.02
# ERK [13] = assay type: cell-based, murine; settings: NRTN 200 ng/ml; vehicle 0.18±0.04
# TrkB = TrkB (Homo sapiens, UniProt Q16620); assay: Luciferase reporter assay in MG87 cells expressing TrkB; assay type: cell-based; settings: BDNF 100 ng/ml, overnight
# Sequence of TrkB (Q16620 32-822, species assumed): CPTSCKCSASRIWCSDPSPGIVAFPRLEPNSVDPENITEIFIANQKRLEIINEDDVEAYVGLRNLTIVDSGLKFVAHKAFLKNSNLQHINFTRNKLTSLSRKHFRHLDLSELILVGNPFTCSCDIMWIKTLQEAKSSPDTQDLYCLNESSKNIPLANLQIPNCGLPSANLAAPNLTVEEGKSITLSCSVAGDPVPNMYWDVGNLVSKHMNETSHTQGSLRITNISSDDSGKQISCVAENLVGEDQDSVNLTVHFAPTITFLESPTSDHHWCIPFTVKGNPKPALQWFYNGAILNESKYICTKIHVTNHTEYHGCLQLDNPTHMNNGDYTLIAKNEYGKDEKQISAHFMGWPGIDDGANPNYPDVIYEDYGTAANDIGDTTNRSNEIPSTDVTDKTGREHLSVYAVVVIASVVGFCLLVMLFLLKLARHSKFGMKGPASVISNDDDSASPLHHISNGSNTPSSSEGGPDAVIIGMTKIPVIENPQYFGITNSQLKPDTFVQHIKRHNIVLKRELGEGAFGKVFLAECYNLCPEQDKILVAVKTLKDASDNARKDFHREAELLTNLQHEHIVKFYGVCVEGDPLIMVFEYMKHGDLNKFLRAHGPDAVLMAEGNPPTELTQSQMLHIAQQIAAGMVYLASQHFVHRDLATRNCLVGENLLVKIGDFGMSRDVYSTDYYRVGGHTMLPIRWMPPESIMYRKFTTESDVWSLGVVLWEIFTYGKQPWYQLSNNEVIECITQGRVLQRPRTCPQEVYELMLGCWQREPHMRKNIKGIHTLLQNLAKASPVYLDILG
# Sequence of RET (P07949 29-1114): as the sequence (P07949 29-1114) above
# Sequence of GFRα1-RET (P07949 29-1114): as above
# Sequence of GFRα1-RET (P56159 25-429 partner limits assumed): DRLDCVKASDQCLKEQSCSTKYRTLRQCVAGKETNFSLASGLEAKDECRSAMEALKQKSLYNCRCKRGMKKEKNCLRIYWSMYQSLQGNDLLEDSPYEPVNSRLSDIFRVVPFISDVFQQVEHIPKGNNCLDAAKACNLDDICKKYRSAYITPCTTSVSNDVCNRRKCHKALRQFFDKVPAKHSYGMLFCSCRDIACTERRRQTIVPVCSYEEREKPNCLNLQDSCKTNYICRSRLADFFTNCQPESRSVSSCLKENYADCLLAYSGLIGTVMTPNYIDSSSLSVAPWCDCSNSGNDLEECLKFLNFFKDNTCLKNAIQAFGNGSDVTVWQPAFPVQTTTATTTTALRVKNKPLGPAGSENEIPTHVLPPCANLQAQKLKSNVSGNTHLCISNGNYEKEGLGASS
molecule,measurement,setting,value
"GDNF: Human recombinant glial cell line-derived neurotrophic factor (protein, UniProt P39905 78-211, looked up) Glial cell line-derived …: SPDKQMAVLPRRERNRQAAAANPENSRGKGRRGQRGKNRGCVLTAIHLNVTDLGLGYETKEELIFRYCSGSCDAAETTYDKILKNLSRNRRLVSDKVGQACCRPIAFDDDLSFLDDNLVYHILRKHSAKRCGCI",level of RET phosphorylation (pRET band normalized to RET),GFRα1-RET,2.59±0.33
same,RET activation,RET,did not activate RET
same,level of AKT phosphorylation (pAKT normalized to GAPDH),AKT [1],4.77±0.43
same,level of ERK phosphorylation (pERK normalized to GAPDH),ERK [2],2.76±0.37
same,number of TH-ir cells,[3],384.0±35.2
same,survival promoting effect,[4],did not observe survival promoting effect
same,number of TH-ir neurons,[5],333.0±12.6
same,number of net ipsilateral turns (120 min),6-OHDA lesioned rats [6],149.1±47.9
same,number of TH-ir fibers (neurite number) in the striatum,6-OHDA lesioned rats [7],No statistically significant differences
same,number of TH-ir cell bodies relative to PBS,6-OHDA lesioned rats [8],2.5 times
same,number of TH-ir cell bodies relative to PG,6-OHDA lesioned rats [8],2.3 times
same,"number of TH-ir cell bodies in the SNpc, Lesioned/Intact side (%)","6-OHDA lesioned rats [8]; 12 weeks post lesion, PBS 11.5±0.9, PG 12.6±0.9",29.1±2.8 % of the intact side
same,number of DAT-ir cell bodies relative to PBS,6-OHDA lesioned rats [9],2.2 times
same,number of DAT-ir cell bodies in the SNpc,"6-OHDA lesioned rats [9]; 12 weeks post lesion, PBS 9.5±1.4, PG 11.6±1.3",20.7±2.9 % of the intact side
same,GDNF concentration at which effects on neuronal survival are detected,dopamine neurons; ref 52,1 ng/mL
same,GDNF concentration at which somewhat increase in survival is already detectable,dopamine neurons; ref 52,0.1 ng/mL
same,GDNF concentration at which effects on neuronal survival are detected,dopamine neurons; ref 81,5 ng/mL
same,TH-ir fiber density relative to PBS treated rats,6-OHDA lesioned rats [10],2.6 times
same,density of TH-ir fibers in the striatum,6-OHDA lesioned rats [10],15.8±1.6 % of the intact side
same,DAT-ir fiber density relative to PBS,6-OHDA lesioned rats [11],9.9 times
same,density of DAT-ir fibers in the striatum,6-OHDA lesioned rats [11]; 12 weeks post lesion,9.9±1.7 % of the intact side
"NRTN: human recombinant neurturin (protein, UniProt Q99748 96-197, looked up) Neurturin: ARLGARPCGLRELEVRVSELGLGYASDETVLFRYCAGACEAAARVYDLGLRRLRQRRRLRRERVRAQPCCRPTAYEDEVSFLDAHSRYHTVHELSARECACV",level of RET phosphorylation (pRET band normalized to RET),GFRα2-RET,3.34±0.41
same,level of AKT phosphorylation (pAKT normalized to GAPDH),AKT [12],1.72±0.13
same,level of ERK phosphorylation (pERK normalized to GAPDH),ERK [13],1.14±0.15
"BDNF: brain-derived neurotrophic factor (protein, UniProt P23560 19-247, looked up) Neurotrophic factor BDNF …: APMKEANIRGQGGLAYPGVRTHGTLESVNGPKAGSRGLTSLADTFEHVIEELLDEDQKVRPNEENNKDADLYTSRVMLSSQVPLEPPLLFLLEEYKNYLDAANMSMRVRRHSDPARRGELSVCDSISEWVTAADKKTAVDMSGGTVTVLEKVPVSKGQLKQYFYETKCNPMGYTKEGCRGIDKRHWNSQCRTTQSYVRALTMDSKKRIGWRFIRIDTSCVCTLTIKRGR",luciferase activity in reporter cells expressing TrkB,TrkB,increased the luciferase activity

# From publication PMC8461720 (Journal of Parkinson's Disease, 2021)
